From paper PMC10715030 come the findings set out here.

In assay [1] the target is c-type human lysozyme (human) (UniProt P61626).
For assay [2], the target named is AP205 capsid virus-like particle displaying the complementary Catcher (SpyCatcher-VLP) (not stated | Acinetobacter phage AP205). The experiment in a line: SDS-PAGE of covalent Tag/Catcher coupling (densitometry); N-SliC or C-SliC mixed with complementary SpyCatcher VLPs at a molar ratio of 1:3, 2 h, room temperature, PBS; covalently coupled band at ~45 kDa; coupling efficiency by densitometry (ImageQuant).

A value given as a limit tells only on which side of the number the result lay.

Chain of UniProt P61626 (P61626 19-148): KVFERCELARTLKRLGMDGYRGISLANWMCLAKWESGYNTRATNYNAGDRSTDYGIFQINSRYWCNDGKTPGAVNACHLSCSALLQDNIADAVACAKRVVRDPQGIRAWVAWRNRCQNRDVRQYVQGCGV

In assay [1], “SliC with the N-terminal SpyTag (N-SliC)” showed a lytic activity of HL (2.5 µM) on DQ lysozyme substrate (EnzChek Lysozyme Assay Kit), N-SliC 0-5 µM, 30 min at 37°C before substrate greater than 1.25 µM. In addition, in assay [2], the cVLP subunits carrying SliC (of 180) (subunits per cVLP) turned out to be 140 and the coupling efficiency stood at 77%.
